Legend:
[1] = target: tau aggregates in HEK293 tau biosensor cells (4R repeat domain of tau (K18) with the P301S mutation fused to CFP or YFP, seeded with clarified tau mouse brain homogenate) (UniProt P10636); experiment: Halo imaging, colocalization with cytoplasmic tau aggregates, 5 images
[2] = target: tau aggregates in HEK293 tau biosensor cells (4R repeat domain of tau (K18) with the P301S mutation fused to CFP or YFP, seeded with clarified tau mouse brain homogenate) (UniProt P10636); experiment: Halo (JF646) imaging; intensity in aggregate over adjacent region, 5 aggregates
[3] = target: tau aggregates in HEK293 tau biosensor cells (4R repeat domain of tau (K18) with the P301S mutation fused to CFP or YFP, seeded with clarified tau mouse brain homogenate) (UniProt P10636); experiment: Halo imaging, colocalization with cytoplasmic tau aggregates (FIG. 5D)
[4] = target: tau aggregates in HEK293 tau biosensor cells (4R repeat domain of tau (K18) with the P301S mutation fused to CFP or YFP, seeded with clarified tau mouse brain homogenate) (UniProt P10636); experiment: Halo (JF646) imaging; intensity in aggregate over adjacent region, five aggregates
[5] = target: tau aggregates in HEK293 tau biosensor cells (4R repeat domain of tau (K18) with the P301S mutation fused to CFP or YFP, seeded with clarified tau mouse brain homogenate) (UniProt P10636); experiment: Halo (JF646) imaging in seeded HEK293 tau biosensor cells; mean Halo intensity in aggregates over that of the compartment

Chain of tau aggregates in HEK293 tau biosensor cells (4R repeat domain of tau (K18) with the P301S mutation fused to CFP or YFP, seeded with clarified tau mouse brain homogenate) (P10636 561-689 P618S): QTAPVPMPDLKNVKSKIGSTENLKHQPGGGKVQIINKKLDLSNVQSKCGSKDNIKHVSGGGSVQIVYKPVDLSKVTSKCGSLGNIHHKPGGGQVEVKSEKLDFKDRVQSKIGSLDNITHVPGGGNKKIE

Row | percentage of cytoplasmic tau aggregates positive for the construct [1] [%] | mean enrichment in cytoplasmic tau aggregates [2] | percentage of cytoplasmic tau aggregates with recruitment [3] [%] | mean enrichment in cytoplasmic tau aggregates [4] | mean enrichment in tau aggregates [5] | Substance
1 | 96 | 5.46 | > 90 |  |  | 42-polyserine-halo
2 |  |  |  | 2.5 |  | Frag_1-Halo (SRRM2 a.a. 2606-2752)
3 | 98 |  | > 90 | 4.3 |  | Frag_2-Halo (SRRM2 a.a. 2458-2752)
4 |  | 1.19 |  |  |  | Halo tagged 20 serine repeat
5 | 62 |  |  |  | 2.57 | SRRM2_FL-Halo (from UniProt Q9UQ35 1-2748)

Reference: patent US20250215059A1
